Reference: patent publication US20250129148A1 (ONCOONE RESEARCH AND DEVELOPMENT, published 2025)
Positions count from the first letter of the chain named.

B1: C0008 (control/reference anti-oxMIF antibody) (antibody, human IgG1, kappa, V domains shown)
VH: EVQLLESGGGLVQPGGSLRLSCAASGFTFSIYSMNWVRQAPGKGLEWVSSIGSSGGTTYYADSVKGRFTISRDNSKNTLYLQMNSLRAEDTAVYYCAGSQWLYGMDVWGQGTTVTVSS
VL: DIQMTQSPSSLSASVGDRVTITCRSSQRIMTYLNWYQQKPGKAPKLLIFVASHSQSGVPSRFRGSGSETDFTLTISGLQPEDSATYYCQQSFWTPLTFGGGTKVEIKR
notes: Human IgG1 with wt Fc; also called control antibody
B2: C0132 (Fc silenced anti-oxMIF x anti-HSG bispecific antibody, Fab/scFv-Fc) (bispecific antibody, human IgG1, kappa, L234A L235A)
heavy: not shown
chain: EVQLVESGGDLVKPGGSLKLSCAASGFTFSIYTMSWLRQTPGKGLEWVATLSGDGDDIYYPDSVKGRFTISRDNAKNSLYLQMNSLRAEDTALYYCARVRLGDWDFDVWGQGTTVSVSSGGSGGSGGSGGSGGSDIVMTQSPSSLAVSPGERVTLTCKSSQSLFNSRTRKNYLGWYQQKPGQSPKLLIYWASTRESGVPDRFSGSGSGTDFTLTINSLQAEDVAVYYCTQVYYLCTFGAGTKLELKGGGGSDKTHTCPPCPAPEAAGGPSVFLFPPKPKDTLMISRTPEVTCVVVDVSHEDPEVKFNWYVDGVEVHNAKTKPREEQYNSTYRVVSVLTVLHQDWLNGKEYKCKVSNKALPAPIEKTISKAKGQPREPQVCTLPPSRDELTKNQVSLSCAVKGFYPSDIAVEWESNGQPENNYKTTPPVLDSDGSFFLVSKLTVDKSRWQQGNVFSCSVMHEALHNHYTQKSLSLSPG
light: DIQMTQSPSSLSASVGDRVTITCRSSQRIMTYLNWYQQKPGKAPKLLIYVGSHSQSGVPSRFRGSGSETDFTLTISGLQPEDSATYYCQQSFFTPLTFGGGTKVEIKRTVAAPSVFIFPPSDEQLKSGTASVVCLLNNFYPREAKVQWKVDNALQSGNSQESVTEQDSKDSTYSLSSTLTLSKADYEKHKVYACEVTHQGLSSPVTKSFNRGEC
notes: One anti-oxMIF arm only; also called bsMab C0132
B3: C0133 (Fc silenced anti-oxMIF x anti-HSG bispecific antibody, Fab/Fab-scFv-Fc) (bispecific antibody, human IgG1, kappa, L234A L235A)
heavy: not shown
chain: EVQLQESGGGLVQPGGSLRLSCAASGFTFSIYSMNWVRQAPGKGLEWVSSIGSSGGTTYYADSVKGRFTISRDNSKNTLYLQMNSLRAEDTAVYYCAGSQYLYGMDVWGQGTTVTVSSASTKGPSVFPLAPSSKSTSGGTAALGCLVKDYFPEPVTVSWNSGALTSGVHTFPAVLQSSGLYSLSSVVTVPSSSLGTQTYICNVNHKPSNTKVDKKVEPKSCGGGGSGGGGSEVQLVESGGDLVKPGGSLKLSCAASGFTFSIYTMSWLRQTPGKGLEWVATLSGDGDDIYYPDSVKGRFTISRDNAKNSLYLQMNSLRAEDTALYYCARVRLGDWDFDVWGQGTTVSVSSGGSGGSGGSGGSGGSDIVMTQSPSSLAVSPGERVTLTCKSSQSLFNSRTRKNYLGWYQQKPGQSPKLLIYWASTRESGVPDRFSGSGSGTDFTLTINSLQAEDVAVYYCTQVYYLCTFGAGTKLELKGGGGSGGGGSKTHTCPPCPAPEAAGGPSVFLFPPKPKDTLMISRTPEVTCVVVDVSHEDPEVKFNWYVDGVEVHNAKTKPREEQYNSTYRVVSVLTVLHQDWLNGKEYKCKVSNKALPAPIEKTISKAKGQPREPQVCTLPPSRDELTKNQVSLSCAVKGFYPSDIAVEWESNGQPENNYKTTPPVLDSDGSFFLVSKLTVDKSRWQQGNVFSCSVMHEALHNHYTQKSLSLSPG
light: B2 light
notes: also called bsMab C0133
B4: C0115 (Fc silenced anti-oxMIF antibody) (antibody, human IgG1, kappa, L234A L235A, V domains shown)
VH: B1 VH with L5Q, W101Y
VL: B1 VL with F49Y, A51G, W93F
B5: C0118 (Fc silenced anti-oxMIF antibody) (antibody, human IgG1, kappa, L234A L235A, V domains shown)
VH: B1 VH with L5Q, W101Y
VL: B1 VL with M30L, F49Y, A51G, P80S, W93F

The binders below were run against T1, oxMIF (recombinant human MIF immobilized into ELISA plates, transforming MIF to oxMIF) (human, UniProt P14174 2-115) (assay: ELISA on immobilized MIF (oxMIF), 4-parameter fit).
T1 construct: Oxidised conformational isoform produced by coating the plate at 1 ug/ml in PBS overnight; also called immobilized MIF (oxMIF); immobilized oxMIF
T1 sequence (P14174 2-115 limits assumed): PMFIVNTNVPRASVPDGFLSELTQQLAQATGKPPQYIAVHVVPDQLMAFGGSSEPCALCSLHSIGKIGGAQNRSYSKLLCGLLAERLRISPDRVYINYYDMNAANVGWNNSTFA
Method: (§1) Recombinant human MIF diluted in PBS at 1 μg/ml was immobilized into ELISA plates overnight at 4° C. (transforming MIF to oxMIF according to Thiele et al., 2015). After blocking, serial dilutions of anti-oxMIF antibodies were added to the plates. Finally, bound antibodies were detected using a Goat anti-human IgG (Fc)-HRP conjugate and tetramethylbenzidine (TMB) as substrate. The chromogenic reaction was stopped with 3M H₂SO₄ and OD was measured at 450 nm. Data from different experiments were normalized to the maximal OD of the anti-oxMIF antibody C0008 (=100%) of the respective experiment and EC₅₀ values were determined by 4-parameter fit using GraphPad Prism (and the mean+/−SEM of two experiments is shown).
Materials and Methods: Recombinant human MIF diluted in PBS at 1 μg/ml was immobilized into ELISA plates overnight at 4° C. (transforming MIF to oxMIF according to Thiele et al., 2015). After blocking, serial dilutions of antibodies were added to the plates, and ELISA was performed as described in the Example 3.

| Binder | EC50 |
| --- | --- |
| B1 | 158 pM |
| B2 | 2510 pM |
| B3 | 242 pM |

The binders below were run against T1, oxMIF (recombinant human MIF …) (assay: ELISA on immobilized MIF (oxMIF); EC50 of 4-parameter fit given as apparent KD).
Method: as §1
Anti-oxMIF antibodies were detected by an anti-human-IgG (Fc)-HRP conjugate, C0008 was used as reference antibody. EC₅₀ values were determined by sigmoidal, 4-parameter equation using GraphPad Prism (mean+/−SEM of two experiments is shown)

| Binder | Kd |
| --- | --- |
| B1 | 190 pM |
| B4 | 280 pM |
| B5 | 260 pM |
